{"source": "paper PMC6201861", "binders": {"B1": {"name": "S5-Pore peptide (peptide)", "peptide": "EQPHMDSRIGWLHN"}}, "target": "mAb-hERG1", "sequence (heavy, as listed by the source, chain 1 of 2)": "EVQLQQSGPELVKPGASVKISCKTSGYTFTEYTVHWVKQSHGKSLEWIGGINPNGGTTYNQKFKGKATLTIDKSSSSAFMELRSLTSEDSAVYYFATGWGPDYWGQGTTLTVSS", "sequence (light, as listed by the source, chain 2 of 2)": "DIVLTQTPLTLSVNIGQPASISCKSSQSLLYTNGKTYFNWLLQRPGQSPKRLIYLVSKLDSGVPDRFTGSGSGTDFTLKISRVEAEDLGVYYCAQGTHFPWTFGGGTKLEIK", "test": "SPR; Biacore T200; mAb-hERG1 bound to a Protein G pre-coated CM5 chip (7693 RU); S5-Pore applied at 10, 50, 100, 500 nM, single cycle kinetics; contact 30 s, dissociation 120 s, 30 ul/min"}
{"binder": "B1", "values": [{"measurement": "Kd", "value": 16.2, "unit": "nM"}, {"measurement": "koff", "value": 0.0258, "unit": "s⁻¹"}, {"measurement": "kon", "value": "1.6e+06", "unit": "M⁻¹ s⁻¹"}]}
